This is an account of results in article PMC12711917.

The target of this experiment is 5-TAMRA-labeled human CaV1.2-IQ peptide (human).
Sequence of 5-TAMRA-labeled human CaV1.2-IQ peptide (human) (Q13936 1659-1692): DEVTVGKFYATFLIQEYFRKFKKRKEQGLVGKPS

Turning to “calmodulin, wild type (from UniProt P0DP23 1-149) (natural protein)”, the f300 (calcium-dependent inactivation of the CaV1.2 channel; whole-cell voltage clamp of HEK293 cells co-transfected with human CaV1.2 α1C, β2a, α2δ and calmodulin) is 0.57.
